The target in test [1] is T1, mouse EP1 with Cycle 3 GFP at the C-terminus, on 293FT cells (mouse, UniProt P35375 1-405).
T1 construct: whole, on cells; also called mEP1; pcDNA-DEST47-mEP1; not shown: Cycle 3 GFP from the pcDNA-DEST47 vector
T1 sequence (looked up): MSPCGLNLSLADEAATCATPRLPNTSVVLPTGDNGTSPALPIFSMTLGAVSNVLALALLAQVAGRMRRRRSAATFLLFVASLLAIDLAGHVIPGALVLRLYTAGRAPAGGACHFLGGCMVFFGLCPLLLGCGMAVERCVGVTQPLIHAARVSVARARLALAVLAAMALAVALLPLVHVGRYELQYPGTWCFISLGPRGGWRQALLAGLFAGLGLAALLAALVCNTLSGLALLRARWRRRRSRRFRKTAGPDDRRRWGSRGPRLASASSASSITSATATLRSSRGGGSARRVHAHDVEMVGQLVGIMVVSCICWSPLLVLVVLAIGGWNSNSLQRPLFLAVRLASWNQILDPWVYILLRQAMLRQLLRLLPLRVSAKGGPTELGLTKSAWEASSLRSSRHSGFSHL
Kind of test: flow cytometry on 293FT cells transiently expressing EP-GFP. As for the experimental part:
(§1) The pcDNA-DEST47-hEP1, pcDNA-DEST47-hEP2, pcDNA-DEST47-hEP3, pcDNA-DEST47-hEP4, pcDNA-DEST47-mEP1, pcDNA-DEST47-mEP2, pcDNA-DEST47-mEP3, and pcDNA-DEST47-mEP4 produced in (11) above (10 μg each) were each introduced into 293FT cells, using Lipofectamin 2000. On the following day, the cells were washed with HBSS, and were then removed from the cell culture dish using an enzyme-free cell dissociation buffer. The cells were then recovered by centrifugation. The thus recovered cells are referred to as 293FT cells transiently expressing EP.
(§2) The binding test of the anti-EP4 antibody of the present invention and the 293FT transiently expressing EP cells was carried out with a flow cytometer according to the method described in (6) above. 293FT cells (5×10⁵ cells) that transiently expressed each of 8 types of PGE₂ receptor subtypes were used. As a primary antibody, 1 μg of the anti-EP4 antibody NBG016-mAb14 or NBG016-mAb21, or a mouse isotype control antibody (manufactured by BioRegend) was used. As a secondary antibody, a PE-labeled anti-mouse IgG antibody was used.

The target of test [2] is T2, mouse EP3 with Cycle 3 GFP at the C-terminus, on 293FT cells (mouse, UniProt P30557 1-365).
T2 construct: whole, on cells; also called mEP3; pcDNA-DEST47-mEP3; not shown: Cycle 3 GFP from the pcDNA-DEST47 vector
T2 sequence (looked up): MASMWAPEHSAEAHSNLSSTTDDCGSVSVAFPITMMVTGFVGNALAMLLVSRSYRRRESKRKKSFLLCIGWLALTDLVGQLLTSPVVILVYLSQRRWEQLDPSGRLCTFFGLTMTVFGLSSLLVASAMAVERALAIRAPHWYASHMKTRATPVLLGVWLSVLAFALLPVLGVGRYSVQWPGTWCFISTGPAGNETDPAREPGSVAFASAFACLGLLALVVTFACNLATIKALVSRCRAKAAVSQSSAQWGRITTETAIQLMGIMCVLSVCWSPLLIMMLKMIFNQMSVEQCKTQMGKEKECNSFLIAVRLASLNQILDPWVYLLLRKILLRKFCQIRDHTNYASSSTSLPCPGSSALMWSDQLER
The test is described as above. As for the experimental part: as §1, §2

The target of test [3] is T3, human EP1 with Cycle 3 GFP at the C-terminus, on 293FT cells (human, UniProt P34995 1-402).
T3 construct: whole, on cells; also called hEP1; pcDNA-DEST47-hEP1; not shown: Cycle 3 GFP from the pcDNA-DEST47 vector
T3 sequence (looked up): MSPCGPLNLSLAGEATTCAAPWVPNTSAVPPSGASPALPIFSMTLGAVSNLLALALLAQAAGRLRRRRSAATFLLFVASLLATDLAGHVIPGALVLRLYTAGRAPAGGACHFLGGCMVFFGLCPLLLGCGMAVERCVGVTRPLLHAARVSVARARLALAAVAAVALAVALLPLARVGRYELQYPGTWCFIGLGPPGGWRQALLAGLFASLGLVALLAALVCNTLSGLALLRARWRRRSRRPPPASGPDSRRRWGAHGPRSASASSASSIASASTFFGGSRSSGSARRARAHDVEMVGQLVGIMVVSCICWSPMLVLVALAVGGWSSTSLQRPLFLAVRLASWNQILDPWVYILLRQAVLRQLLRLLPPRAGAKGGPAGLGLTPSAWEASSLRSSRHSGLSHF
The test is described as above. Here is the method: as §1, §2

Test [4] deals with T4, mouse EP2 with Cycle 3 GFP at the C-terminus, on 293FT cells (mouse, UniProt Q62053 1-362).
T4 construct: whole, on cells; also called mEP2; pcDNA-DEST47-mEP2; not shown: Cycle 3 GFP from the pcDNA-DEST47 vector
Described as above. As for the experimental part: as §1, §2

The target in test [5] is T5, human EP2 with Cycle 3 GFP at the C-terminus, on 293FT cells (human, UniProt P43116 1-358).
T5 construct: whole, on cells; also called hEP2; pcDNA-DEST47-hEP2; not shown: Cycle 3 GFP from the pcDNA-DEST47 vector
Described as above. Here is the method:
as §1, §2

Test [6] deals with T6, mouse EP4 with Cycle 3 GFP at the C-terminus, on 293FT cells (mouse, UniProt P32240 1-513).
T6 construct: whole, on cells; also called mEP4; pcDNA-DEST47-mEP4; not shown: Cycle 3 GFP from the pcDNA-DEST47 vector
Described as above. Here is the method: as §1, §2

Test [7] has as its target human EP4 with V5 and 6xHIS tags at the C-terminus, on the CHO cell line stably expressing human EP4 (human, UniProt P35408 1-488). Kind of test: cell-based or functional assay.

Values joined by “and” are separate entries in the source; they are usually repeats but may differ in a detail not shown here. Equal entries are not always repeated.

Sequence of human EP4 with V5 and 6xHIS tags at the C-terminus, on the CHO cell line stably expressing human EP4 (P35408 whole entry): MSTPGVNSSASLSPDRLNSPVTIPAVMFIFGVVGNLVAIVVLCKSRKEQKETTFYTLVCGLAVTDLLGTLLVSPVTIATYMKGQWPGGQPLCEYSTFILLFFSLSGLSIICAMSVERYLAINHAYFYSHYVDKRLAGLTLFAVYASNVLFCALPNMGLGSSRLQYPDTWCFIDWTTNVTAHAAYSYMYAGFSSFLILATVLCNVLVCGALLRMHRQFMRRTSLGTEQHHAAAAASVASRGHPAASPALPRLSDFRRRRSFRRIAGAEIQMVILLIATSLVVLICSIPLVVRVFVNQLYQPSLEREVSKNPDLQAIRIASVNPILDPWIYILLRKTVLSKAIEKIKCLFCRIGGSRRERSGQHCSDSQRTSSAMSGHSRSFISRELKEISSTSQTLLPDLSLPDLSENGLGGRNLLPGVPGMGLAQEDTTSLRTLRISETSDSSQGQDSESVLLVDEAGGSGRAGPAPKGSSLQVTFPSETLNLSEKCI
T4 sequence (Q62053 whole entry): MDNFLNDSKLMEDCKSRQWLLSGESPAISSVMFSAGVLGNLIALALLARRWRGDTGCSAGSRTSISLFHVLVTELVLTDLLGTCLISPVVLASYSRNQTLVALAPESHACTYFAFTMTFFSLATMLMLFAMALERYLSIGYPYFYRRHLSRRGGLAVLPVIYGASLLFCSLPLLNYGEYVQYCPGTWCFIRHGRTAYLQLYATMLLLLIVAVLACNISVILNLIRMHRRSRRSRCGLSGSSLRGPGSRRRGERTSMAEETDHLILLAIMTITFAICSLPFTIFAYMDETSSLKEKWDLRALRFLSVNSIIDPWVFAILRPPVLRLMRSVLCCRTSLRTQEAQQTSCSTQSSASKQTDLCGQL
T5 sequence (P43116 whole entry): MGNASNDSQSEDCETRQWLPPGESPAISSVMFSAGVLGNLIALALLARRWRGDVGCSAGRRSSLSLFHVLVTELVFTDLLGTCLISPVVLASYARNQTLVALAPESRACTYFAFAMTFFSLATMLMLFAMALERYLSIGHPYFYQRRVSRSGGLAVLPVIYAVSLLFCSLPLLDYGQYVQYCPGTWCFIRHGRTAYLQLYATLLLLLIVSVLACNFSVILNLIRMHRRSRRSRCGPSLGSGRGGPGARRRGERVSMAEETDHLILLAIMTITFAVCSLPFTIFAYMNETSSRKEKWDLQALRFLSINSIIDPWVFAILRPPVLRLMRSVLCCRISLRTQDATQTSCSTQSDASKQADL
T6 sequence (P32240 whole entry): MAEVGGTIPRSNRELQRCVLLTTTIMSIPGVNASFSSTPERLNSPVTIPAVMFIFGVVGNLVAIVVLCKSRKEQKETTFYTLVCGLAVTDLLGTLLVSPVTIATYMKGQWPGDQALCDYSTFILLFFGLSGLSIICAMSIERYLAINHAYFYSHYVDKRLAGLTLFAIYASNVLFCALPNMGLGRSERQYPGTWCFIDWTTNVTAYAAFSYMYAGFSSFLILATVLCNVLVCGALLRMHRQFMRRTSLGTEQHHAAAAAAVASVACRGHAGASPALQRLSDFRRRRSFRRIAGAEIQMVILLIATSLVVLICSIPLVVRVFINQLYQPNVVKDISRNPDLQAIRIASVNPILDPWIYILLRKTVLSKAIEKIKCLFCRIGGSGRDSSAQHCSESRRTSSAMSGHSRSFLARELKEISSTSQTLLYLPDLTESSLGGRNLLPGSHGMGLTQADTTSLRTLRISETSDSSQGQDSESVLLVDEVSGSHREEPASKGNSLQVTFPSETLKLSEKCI

B1: NBG016-mAb9 (antibody, mouse IgG1, kappa, V domains shown)
VH: QVQLKESGPGLVAPSQSLSITCTVSGFSLSSYTIHWVRQPPGRGLEWLGVIWAGGSTNYNSALMSRLRISKDTSRSQVFLKVNSLQTDDSAIYYCARDDFGYGFAYWGQGTLVTVSA
VL: DVLMTQTPLSLPVSLGDQASISCRSSQSLVHTTGNTYLEWYLQKPGQSPKLLIYKISRRFSGVPDRFSGSGSGTDFTLRISRVEAADLGIYYCFQGSHIPPTFGAGTKLERKR
notes: Mouse IgG1, kappa, purified from hybridoma supernatant; the recombinant antibody (293FT supernatant) was expressed from the same genes; The entries may carry a signal peptide; also called recombinant antibody NBG016-mAb9
For B1, the binding result in test [1], in test [2], in test [3], in test [4], in test [5] and in test [6] was “no binding” throughout. Also, the “IC50 of inhibition of PGE2-induced cAMP production in the CHO cell line stably expressing human EP4 (1.5×10^-10 M PGE2)” value in test [7] is 4.6 µg/mL and ~28.8 nM.

B2: NBG016-mAb14 (antibody, V domains shown)
VH: EIQLQQSGPELVKPGASVKVSCKASGFPFSTYNIYWVIQSHGKRLEWIGYIDPYNGGTSYNQKFRGKATLTVDKSSSTAYMHLNRLTSEDSAVYYCARRWYTYDGDWFAYWGQGTLVTVSA
VL: DIKMTQSPSSMYVSLGERVTITCKASQDINRYLSWFQQKPGKSPKTLIYRANRLLDGVPSRFSGSGSGLDYSLTISSLEYEDMGNYYCLQYDEFPFTFGSGTKLEIKR
For B2, the “IC50 of inhibition of PGE2-induced cAMP production in the CHO cell line stably expressing human EP4 (5×10^-11 M PGE2)” value in test [7] was 0.15 µg/mL and ~1 nM.

B3: NBG016-mAb21 (antibody, mouse IgG2a)
heavy: EIQLQQSGPELVKPGASVKVSCKASGFPFSTYNIYWVIQSHGKSLEWIGYIDPYNGGTSYNQKFRGKATLTVDKSSSTAYMHLNSLTSEDSAVYYCARRWYTYDGDWFAYWGQGTLVTVSAAKTTAPSVYPLAPVCGDTTGSSVTLGCLVKGYFPEPVTLTWNSGSLSSGVHTFPAVLQSDLYTLSSSVTVTSSTWPSQSITCNVAHPASSTKVDKKIEPRGPTIKPCPPCKCPAPNLLGGPSVFIFPPKIKDVLMISLSPIVTCVVVDVSEDDPDVQISWFVNNVEVHTAQTQTHREDYNSTLRVVSALPIQHQDWMSGKEFKCKVNNKDLPAPIERTISKPKGSVRAPQVYVLPPPEEEMTKKQVTLTCMVTDFMPEDIYVEWTNNGKTELNYKNTEPVLDSDGSYFMYSKLRVEKKNWVERNSYSCSVVHEGLHNHHTTKSFSHSPGK
light: DIKMTQSPSSMYVSLGERVTITCKASQDINRYLSWFQQKPGKSPKTLIYRANRMLDGVPSRFSGSGSGQDYSLTISSLEYEDMGNYYCLQYDEFPFTFGSGTKLEIKRADAAPTVSIFPPSSEQLTSGGASVVCFLNNFYPKDINVKWKIDGSERQNGVLNSWTDQDSKDSTYSMSSTLTLTKDEYERHNSYTCEATHKTSTSPIVKSFNRNEC
notes: Mouse IgG2a, kappa, purified from hybridoma supernatant; the recombinant antibody was expressed from the same genes; The entries may carry a signal peptide; also called recombinant antibody NBG016-mAb21; anti-EP4 antibody
Regarding B3, the binding result in test [1], in test [2], in test [3], in test [4], in test [5] and in test [6] was “no binding (tested: 1 µg per 5×10^5 cells)” throughout.

B4: mouse IgG1 antibody NBG016-mAb21 (antibody)
heavy: EIQLQQSGPELVKPGASVKVSCKASGFPFSTYNIYWVIQSHGKSLEWIGYIDPYNGGTSYNQKFRGKATLTVDKSSSTAYMHLNSLTSEDSAVYYCARRWYTYDGDWFAYWGQGTLVTVSSAKTTPPSVYPLAPGSAAQTNSMVTLGCLVKGYFPEPVTVTWNSGSLSSGVHTFPAVLQSDLYTLSSSVTVPSSPRPSETVTCNVAHPASSTKVDKKIVPRDCGCKPCICTVPEVSSVFIFPPKPKDVLTITLTPKVTCVVVDISKDDPEVQFSWFVDDVEVHTAQTQPREEQFNSTFRSVSELPIMHQDWLNGKEFKCRVNSAAFPAPIEKTISKTKGRPKAPQVYTIPPPKEQMAKDKVSLTCMITDFFPEDITVEWQWNGQPAENYKNTQPIMNTNGSYFVYSKLNVQKSNWEAGNTFTCSVLHEGLHNHHTEKSLSHSPGK
light: B3 light
As to B4, the “IC50 of inhibition of PGE2-induced cAMP production in the CHO cell line stably expressing human EP4 (1.5×10^-10 M PGE2)” value in test [7] was 1.1 µg/mL and ~6.9 nM.

The record behind these values is patent US20160075780A1 (NB HEALTH LABORATORY, published 2016).
